# Assay results reported in patent US20030235860A1, “Interactions between AR, ER, TR2, and TR4” (priority 1999, published 2003).
# B1: ER LBD 282-595 (column label of Table 4) (receptor, not shown: large carriers)
# chain: SAGDMRAANLWPSPLMIKRSKKNSLALSLTADQMVSALLDAEPPILYSEYDPTRPFSEASMMGLLTNLADRELVHMINWAKRVPGFVDLTLHDQVHLLECAWLEILMIGLVWRSMEHPVKLLFAPNLLLDRNQGKCVEGMVEIFDMLLATSSRFRMMNLQGEEFVCLKSIILLNSGVYTFLSSTLKSLEEKDHIHRVLDKITDTLIHLMAKAGLTLQQQHQRLAQLLLILSHIRHMSNKGMEHLYSMKCKNVVPLYDLLLEMLDAHRLHAPTSRGGASVEETDQSHLATAGSTSSHSLQKYYITGEAEGFPATV
# B2: retinoid X receptor alpha (RXRα) (receptor, UniProt P19793 1-462, looked up)
# chain: MDTKHFLPLDFSTQVNSSLTSPTGRGSMAAPSLHPSLGPGIGSPGQLHSPISTLSSPINGMGPPFSVISSPMGPHSMSVPTTPTLGFSTGSPQLSSPMNPVSSSEDIKPPLGLNGVLKVPAHPSGNMASFTKHICAICGDRSSGKHYGVYSCEGCKGFFKRTVRKDLTYTCRDNKDCLIDKRQRNRCQYCRYQKCLAMGMKREAVQEERQRGKDRNENEVESTSSANEDMPVERILEAELAVEPKTETYVEANMGLNPSSPNDPVTNICQAADKQLFTLVEWAKRIPHFSELPLDDQVILLRAGWNELLIASFSHRSIAVKDGILLATGLHVHRNSAHSAGVGAIFDRVLTELVSKMRDMQMDKTELGCLRAIVLFNPDSKGLSNPAEVEALREKVYASLEAYCKHKYPEQPGRFAKLLLRLPALRSIGLKCLEHLFFFKLIGDTPIDTFLMEMLEAPHQMT
# notes: 35S-methionine-labeled, in vitro translated; also called RXRa; RXRA
# B3: GST-TR2-#1 (N-terminus, aa 1-112 of TR2) (other)
# chain: MATIEEIAHQIIEQQMGEIVTEQQTGQKIQIVTALDHNTQGKQFILTNHDGSTPSKVILARQDSTPGKVFLTTPDAAGVNQLFFTTPDLSAQHLQLLTDNSPDQGPNKVFDL
# notes: also called pGEX-KG-TR2-#1; not shown: GST carrier of pGEX-KG and its linker
# B4: complement C3 ERE (dsDNA)
# DNA 1: AGGTGGCCCTGACCC
# DNA 2: GGGTCAGGGCCACCT
# Experiments:
# PR = assay: Endogenous PR expression in T47D cells (Northern / Western); type: cell-based, human; details: T47D cells; 10 nM E2, 24 h
# Procedure: The method was used as previously described, Lee & Chang. (1996) J. Biol. Chem. 271. 10405-10412, with some modifications. Briefly. 5 μg of pCMV-TR2 was transiently transfected into T47D cells and lysed in RIPA buffer (10 mM sodium phosphate, pH 7.0. 150 mM NaCL, 2 mM EDT A. 1% (w/v) Nonidet P-40, 0.1% (w/v) SDS. 1% (w/v) sodium deoxycholate) with freshly adding proteinase inhibitors. The soluble protein was quantified using the Bio-Rad Protein Assay reagent (Bio-Rad Laboratories) and 50 μg soluble proteins were loaded onto SDS/10% PAGE and then transferred to Immobion-P transfer membrane (Millipore). After the blocking reaction overnight, the membrane was incubated with […] anti-PR polyclonal antibody (H-190. Santa Cruz) in PBS(−) containing 0.1% Skim milk for 2 h at room temperature. The membrane was washed and then incubated in 15 μCi 125I] of protein-A (DuPont NEN)/30 ml of PBS(−) containing 0.1% Skim milk for 1 h at room temperature. The western blots were autoradiographed and quantitated by using Phosphorlmager.
# RNA isolation and Northern blot analysis were performed as previously described. Young, et al., J. Biol. Chem. 273,20877-20885 (1998).
# Next it was determined if TR2 could repress the ER endogenous target gene expression. PR was chosen because it is well studied as an E2-ER target gene in T47D cells. Misrahi et al., Biochem. Biophys. Res. Commun. 143, 740-748 (1987). […] Cells were then used for RNA isolation (Northern blot analysis) and lysate protein extraction (Western blot analysis). For RNA analysis, total RNAs were isolated, and Northern blots were performed using [32P] labeled PR cDNA probes. The membrane was autoradiographed. For Protein Western blot analysis, cells lysates were prepared and PR proteins were visualized by radioimmunoblot. The membrane was autoradiographed to Phosphorimager and was quantitated by ImageQuant software.
# cyclin D1 = assay: Western blot of cyclin D1 in MCF-7-TR4 cells; type: cell-based; details: 10 nM E2, Dox
# Procedure: MCF-7-TR4 or MCF-7-pBIG cells were cultured in DMEM containing 10% charcoal dextran-treated FBS for 3 days and then 1×10^6 cells were seeded on 100-mm dishes. […] The lysate protein amount was quantitated by Bradford assay (Bio-Rad, Hercules, Calif.) with bovine serum albumin as a reference standard. One hundred μg protein was loaded and after electrophoresis on 10% SDS-PAGE was transferred onto Immobulin (Milipore, Bedford, Mass.). The membrane was blotted with anti-cyclin D1 rabbit polyclonal Ab (H-295) (Santa Cruz). Alkaline phosphatase conjugated secondary Ab was used.
# MCF-7-TR4 cells = assay: MCF-7 cells growth assay (cell counting); type: cell-based; details: MCF-7-TR4 cells (E2 also in MCF-7-pBIG); 10 nM E2; Dox
# Procedure: MCF-7-TR4 and MCF-7-pBIG cells, which were deprived of estrogen by culturing in phenol-free DMEM medium supplement with 10% charcol-stripped FBS for 4 days, were plated at 10^4 cells/well into 24-well plate. […] Cells were trypsinized at the specified time points and counted with a hemocytometer to determine cell density per sample.
# MCF7-TR2 cells = assay: Cell cycle profile by flow cytometry, MCF7-TR2 cells; type: cell-based; details: 3 days, E2, or E2 with doxycycline-induced TR2
# Procedure: (A) Growth assays were performed by MTT method as instructed by manufacturer (Sigma). 5×10^3 MCF7-pBIG and MCF7-TR2 cells were seeded in 24-well plates and incubated in RPMI with 10% CD-FCS for 48 h. […] After 3- and 5-day treatment, cells were harvested for MTT assay. Data represents the relative folds of MTT O.D.570 values at day 5 divided by that at day 3. […] Cells were then trypsinized and fixed overnight in 70% Ethanol. After cells were incubated with 1 mg/ml RNase A (Sigma) and propidium iodide (Roche Molecular Biochemicals), the DNA contents of cells were measured by a flow cytometry. (C) Percentage of growth suppression by TR2. MCF7-TR2 cells were seeded at 5×10^3 cells per well in 24-well plates. […] The treatments were changed every two days. The indices of cell growth were determined by MTT assay. The MTT values from cells without doxycycline were set as 100% in each kind of treatment. Values are represented by the percentage of growth suppression from cells with doxycycline to that without doxycycline.
# [1] = target: T1, TR4 orphan receptor (TR4), full-length (human, UniProt P49116 1-596); assay: Table 4, summary of interactions tested; assay not given
# T1 construct: Full-length TR4; 35S-labeled when in vitro translated, expressed from plasmids in the cell assays; also called pCMX-TR4; pCMV-TR4
# T1 sequence: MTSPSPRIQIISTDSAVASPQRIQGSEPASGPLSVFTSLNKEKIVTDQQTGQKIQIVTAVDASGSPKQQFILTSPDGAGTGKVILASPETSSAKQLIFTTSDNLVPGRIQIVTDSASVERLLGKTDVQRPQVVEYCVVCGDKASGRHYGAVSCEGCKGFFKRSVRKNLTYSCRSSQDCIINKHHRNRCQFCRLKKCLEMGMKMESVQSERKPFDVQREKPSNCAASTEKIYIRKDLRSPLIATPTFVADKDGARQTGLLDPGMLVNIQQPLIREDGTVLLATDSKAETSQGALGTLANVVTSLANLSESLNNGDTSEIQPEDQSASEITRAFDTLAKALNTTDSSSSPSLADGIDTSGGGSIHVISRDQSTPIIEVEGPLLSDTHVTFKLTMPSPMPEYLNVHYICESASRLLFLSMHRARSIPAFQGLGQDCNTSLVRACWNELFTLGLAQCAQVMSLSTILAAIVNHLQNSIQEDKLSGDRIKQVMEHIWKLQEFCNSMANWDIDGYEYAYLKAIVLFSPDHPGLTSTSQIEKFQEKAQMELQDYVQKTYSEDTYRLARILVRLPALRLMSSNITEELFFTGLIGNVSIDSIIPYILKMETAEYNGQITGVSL
# [2] = target: T2, TR4 LBD (row label of Table 4) (human, UniProt P49116 205-596); assay: as above
# T2 construct: not shown: Fusion partner: GST in the pull-down with ER, GAL4-DBD in the hybrid assays with AR
# T2 sequence: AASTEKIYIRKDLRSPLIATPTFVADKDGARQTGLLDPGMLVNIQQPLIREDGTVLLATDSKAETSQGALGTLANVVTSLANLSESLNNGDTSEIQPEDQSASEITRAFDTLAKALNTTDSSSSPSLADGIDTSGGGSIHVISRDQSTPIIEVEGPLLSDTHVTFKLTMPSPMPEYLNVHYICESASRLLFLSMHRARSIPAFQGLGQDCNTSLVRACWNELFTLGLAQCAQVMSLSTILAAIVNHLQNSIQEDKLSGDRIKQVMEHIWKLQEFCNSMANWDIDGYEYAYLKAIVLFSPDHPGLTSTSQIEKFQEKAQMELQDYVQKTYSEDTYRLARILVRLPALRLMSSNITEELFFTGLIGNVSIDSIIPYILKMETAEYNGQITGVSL
# GST-TR4 fusion protein = target: T3, GST-TR4 fusion protein (human, UniProt P49116 1-596); assay: GST pull-down, GST-TR4 on beads, 35S-labeled RXRα
# T3 construct: also called pGEX-3X-TR4
# T3 sequence: T1 sequence
# [3] = target: T4, estrogen receptor (ER), full-length (human, UniProt P03372 1-595); assay: GST pull-down, GST-TR2 fragment on beads, [35S]-ER
# T4 construct: 35S-labeled when in vitro translated for the pull-downs; endogenous in MCF7 cells for the co-immunoprecipitation; also called ERα; pSG5-ER
# T4 sequence: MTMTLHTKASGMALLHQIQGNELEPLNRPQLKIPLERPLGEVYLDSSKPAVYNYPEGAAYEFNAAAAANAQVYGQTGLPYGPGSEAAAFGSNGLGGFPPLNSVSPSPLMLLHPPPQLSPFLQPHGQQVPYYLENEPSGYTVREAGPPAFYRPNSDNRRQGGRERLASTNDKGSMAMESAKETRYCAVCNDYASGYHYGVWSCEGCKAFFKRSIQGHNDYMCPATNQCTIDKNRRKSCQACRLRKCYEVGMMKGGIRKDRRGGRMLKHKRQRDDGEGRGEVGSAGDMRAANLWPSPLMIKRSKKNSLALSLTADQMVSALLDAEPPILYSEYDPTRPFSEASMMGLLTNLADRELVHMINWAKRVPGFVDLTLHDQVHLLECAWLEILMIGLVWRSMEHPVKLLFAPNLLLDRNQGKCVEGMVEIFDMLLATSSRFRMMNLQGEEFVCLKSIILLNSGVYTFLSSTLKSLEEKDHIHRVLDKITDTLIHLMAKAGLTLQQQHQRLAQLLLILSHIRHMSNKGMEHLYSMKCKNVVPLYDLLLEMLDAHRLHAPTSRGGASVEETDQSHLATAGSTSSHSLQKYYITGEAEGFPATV
# [4] = target: T5, TR2 orphan receptor (full length, 603 aa) (UniProt P13056 SEQ:1-603); assay: EMSA; no TR2-ERE band; details: chain copies: 2; label: 32P
# T5 chain: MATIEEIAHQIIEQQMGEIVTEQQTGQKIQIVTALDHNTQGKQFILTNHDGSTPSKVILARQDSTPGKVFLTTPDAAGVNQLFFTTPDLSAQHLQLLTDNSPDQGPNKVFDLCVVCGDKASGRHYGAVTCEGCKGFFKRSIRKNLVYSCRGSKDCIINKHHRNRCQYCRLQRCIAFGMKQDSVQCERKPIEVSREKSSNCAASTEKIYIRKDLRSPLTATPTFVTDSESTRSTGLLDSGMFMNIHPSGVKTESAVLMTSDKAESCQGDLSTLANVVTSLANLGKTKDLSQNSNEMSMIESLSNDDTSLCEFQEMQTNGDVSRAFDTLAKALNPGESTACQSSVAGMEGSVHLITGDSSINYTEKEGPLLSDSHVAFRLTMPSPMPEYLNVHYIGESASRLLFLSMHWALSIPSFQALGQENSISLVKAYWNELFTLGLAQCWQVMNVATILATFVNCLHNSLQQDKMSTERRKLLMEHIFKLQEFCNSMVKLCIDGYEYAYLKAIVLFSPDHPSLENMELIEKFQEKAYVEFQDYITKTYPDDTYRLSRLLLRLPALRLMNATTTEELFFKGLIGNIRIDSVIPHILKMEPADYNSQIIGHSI
# [5] = target: T6, Estrogen receptor alpha (ER) (Homo sapiens, UniProt P03372 SEQ:1-595); assay: EMSA; with or without E2; supershifted by C-314; competed by 100-fold cold ERE; decreased by added TR2; details: chain copies: 2; label: 32P
# T6 chain: T4 sequence
molecule,measurement,setting,value
"C[C@]12CC[C@@H]3c4ccc(O)cc4CC[C@H]3[C@@H]1CC[C@@H]2O [E2, 17β-estradiol, reference compound]",Induction of PR mRNA expression,PR,about 3 fold
same,Cyclin D1 expression,cyclin D1,induced cyclin D1 expression
same,Cell growth (cell number),MCF-7-TR4 cells,stimulated cell growth
same,Cells in G1,MCF7-TR2 cells,37.4%
same,Cells in S,MCF7-TR2 cells,23.6%
B1,binding result,[1],binds
same,binding result,[2],binds
B2,binding result,GST-TR4 fusion protein,no binding
B3,binding result,[3],no binding
B4,binding result,[4],no binding
same,binding result,[5],binds
